Among the data in paper PMC5080453, “Structural characterization of twisted gastrulation provides insights into opposing functions on the BMP signalling pathway” (Matrix Biology, 2016) are Kd values, retold here.

B1: human twisted gastrulation (Tsg), native (glycosylated) (natural protein, UniProt Q9GZX9 26-223, looked up)
chain: CNKALCASDVSKCLIQELCQCRPGEGNCSCCKECMLCLGALWDECCDCVGMCNPRNYSDTPPTSKSTVEELHEPIPSLFRALTEGDTQLNWNIVSFPVAEELSHHENLVSFLETVNQPHHQNVSVPSNNVHAPYSSDKEHMCTVVYFDDCMSIHQCKISCESMGASKYRWFHNACCECIGPECIDYGSKTVKCMNCMF
modifications: N-linked glycans (three predicted N-linked glycosylation sites)
notes: twisted gastrulation (Tsg), human, generated by PCR from image clone Q9GZX9; a thrombin cleavage site stands before the C-terminal His6 tag; For MST it was labelled with NT647 (Red-NHS kit); Monomer by MALS, AUC and SAXS; also called native Tsg

Common to all, as to conditions: both partners purified
For experiment [1], the target named is T1, ΔN-chordin (human chordin construct lacking the N-terminal part) (human, UniProt Q9H2X0 129-955).
T1 construct: chordin, human, ΔN-chordin: partially cleaved chordin fragment lacking the N-terminus and containing the C-terminal vWC domains; source: HEK 293-EBNA cells, as previously described [13]
T1 sequence (looked up): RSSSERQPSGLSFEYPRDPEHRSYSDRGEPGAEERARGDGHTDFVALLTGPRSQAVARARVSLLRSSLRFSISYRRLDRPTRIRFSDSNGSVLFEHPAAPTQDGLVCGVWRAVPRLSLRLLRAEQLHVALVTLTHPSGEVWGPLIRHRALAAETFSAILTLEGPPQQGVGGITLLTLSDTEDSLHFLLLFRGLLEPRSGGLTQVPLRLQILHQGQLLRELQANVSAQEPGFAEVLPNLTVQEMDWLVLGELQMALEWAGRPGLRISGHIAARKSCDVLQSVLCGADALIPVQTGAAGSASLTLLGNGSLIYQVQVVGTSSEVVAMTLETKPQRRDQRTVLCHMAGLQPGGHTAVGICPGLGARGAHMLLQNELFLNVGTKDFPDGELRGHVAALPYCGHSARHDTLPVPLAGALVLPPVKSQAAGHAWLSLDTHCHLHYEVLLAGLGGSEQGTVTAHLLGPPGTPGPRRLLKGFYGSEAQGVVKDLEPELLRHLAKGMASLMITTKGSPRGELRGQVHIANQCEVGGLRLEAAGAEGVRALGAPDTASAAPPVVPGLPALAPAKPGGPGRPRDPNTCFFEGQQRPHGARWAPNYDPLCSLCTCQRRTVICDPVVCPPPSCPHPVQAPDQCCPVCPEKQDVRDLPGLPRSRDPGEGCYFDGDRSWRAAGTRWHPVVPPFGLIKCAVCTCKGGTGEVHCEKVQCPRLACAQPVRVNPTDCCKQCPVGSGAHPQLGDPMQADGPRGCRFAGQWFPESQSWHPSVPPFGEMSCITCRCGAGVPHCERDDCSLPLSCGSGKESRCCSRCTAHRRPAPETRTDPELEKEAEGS
Put plainly: SPR; ProteOn XPR36, GLC chip; Tsg immobilised by amine coupling (300 RU for ΔN-chordin and vWC2–3, 800 RU for vWC1-4CHRD and vWC1); chordin constructs injected at increasing concentrations; 25 °C, 10 mM HEPES, 150 mM NaCl, 3 mM EDTA, 0.05% Tween-20, pH 7.4, 50 μl/min; ΔN-chordin fitted to a 1:1 Langmuir model, vWC2–3 by equilibrium analysis; triplicate. For orientation: SPR reads the build-up and loss of mass on a sensor chip optically.

The target in experiment [2] is B1. Kind of experiment: MST; 15 nM NT647-labelled Tsg mixed with serial dilutions of vWC1 from 7 μM; 50 mM Tris, 150 mM NaCl, 10 mM MgCl2, 0.05% Tween-20, pH 7.4; Monolith NT.115Pico, 20% LED, 20% MST power; triplicate.
The target of experiment [3] is B1. Kind of experiment: SPR; ProteOn XPR36, GLC chip; Tsg immobilised by amine coupling (300 RU for ΔN-chordin and vWC2–3, 800 RU for vWC1-4CHRD and vWC1); chordin constructs injected at increasing concentrations; 25 °C, 10 mM HEPES, 150 mM NaCl, 3 mM EDTA, 0.05% Tween-20, pH 7.4, 50 μl/min; ΔN-chordin fitted to a 1:1 Langmuir model, vWC2–3 by equilibrium analysis; triplicate.

B1 registered a Kd in experiment [1] of 3.08 nM.

B2: chordin vWC1 (residues 50–128) (domain or fragment, human, UniProt Q9H2X0 50-128, looked up)
chain: GCTFGGKVYALDETWHPDLGEPFGVMRCVLCACEAPQWGRRTRGPGRVSCKNIKPECPTPACGQPRQLPGHCCQTCPQE
notes: chordin, human, vWC1, residues 50–128, generated by PCR from full-length human chordin; thrombin cleavage site before the C-terminal His6 tag
Take B2: in experiment [2], the dissociation constant Kd was 322 nM.

B3: chordin vWC2–3 (residues 701–860) (domain or fragment, human, UniProt Q9H2X0 701-860, looked up)
chain: DPNTCFFEGQQRPHGARWAPNYDPLCSLCTCQRRTVICDPVVCPPPSCPHPVQAPDQCCPVCPEKQDVRDLPGLPRSRDPGEGCYFDGDRSWRAAGTRWHPVVPPFGLIKCAVCTCKGGTGEVHCEKVQCPRLACAQPVRVNPTDCCKQCPVGSGAHPQL
notes: chordin, human, vWC2–3, residues 701–860, generated by PCR from full-length human chordin; thrombin cleavage site before the C-terminal His6 tag
For B3, the Kd in experiment [3] is 26.4 nM.

Broadly, the Kd is the constant that tells how readily two partners part at equilibrium.
